Measurements: the nanobody polyreactivity screen of Harvey et al. (2022)

test: yeast display, Sf9 membrane polyspecificity reagent, FACS + sequencing; frameworks hold sequencing errors
In short: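 Sorting gates, low and high (top ~1%), were placed on anti-HA fluorescence to track expression and on streptavidin fluorescence to track reagent binding. A clone's polyreactivity label is taken from the gate it came out of. The reagent was 10% biotinylated, detergent-solubilized Sf9 membrane, applied for 1 hour at 4 °C to galactose-induced yeast display cells.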

Sequence | polyreactivity (PSR sort gate)
QVQLVESGGGLVQAGGSLRLSCAASGRTFFINTMGWYRQAPGKEREFVAAITWSAGRTYYADSVKGRFTISRDNAKNTVYLQMNSLKPEDTAVYYCAAALHGHTFPFYYWGQGTLVTVSS | low polyreactivity
QVQLVESGGGLVQAGGSLRLSCAASGRILDYNAMGWYRPAPGKERELVAAITRRGGSTYYADSVKGRFTISRDNAKNTVYLQMNSLKPEDTAVYYCNARWSTTAHTRFGYWGQGTQVTVSS | low polyreactivity
QVKLVESGGGLFQAGGSLRLSCADSGRTFYYYGMPWYIQETGKERELVAAINRGDSTKYADSVKGRFTISLDNAKNNVYLHMNSLKPEDTAVYYCNARLRCSFARFIYEYWRQGTQVTVSS | low polyreactivity
QVQLVESGGGLVQAGGSLRLSCAASGFTFGYYAMGWYRQAPGKERELVAAINWSGDSTYYADSVKGRFTISRDNAKNTVYLQMNSLKPEDTAVYYCNAVIEDLPYDYWGQGTQVTVSS | low polyreactivity
QVQLVESGGGLVQAGGSLRLSCAASGFTFGPYDLGWYRQAPGKERELVAAITDSSGSTHYADSVKGRFTISRDNAKNTVYLQMNSLKPEDTAVYYCAADDSSRTTYDYWGQGTQVTVSS | low polyreactivity
QVQLVESGGGLVQAGGSLRLSCAASGFTFVGNAMGWYRQAPGKERELVATITSGGNTKYADSVKGRFTISRDNAKNTVYLQMNILKPEDTAVYYCAADSDSFWGVPSYYWGQGTQVTVSS | low polyreactivity
QVQLVESGGGLVQAGGSLRLSCSASGRTFGGNAMGWSRPAPGKERELVAAIARSGGTTYYADSVKGRFTISRDNAKNTVYLQMNSLKPEDTAVYYCNTRRYGAMYYWGQGTQVTVSS | high polyreactivity
QVQLVESGGGLVQAGGSLRLSCAASGITFYGNAMGWYRQAPGKERELVAAITYSGTSTYYADSVKGRFTISRDNAKNTVYLQMNSLKPEDTAVYYCAADEWYLVDYWGQGTQVTVSS | low polyreactivity
QVQLVESGGGLVQAGGSLRLSCAASGSIIVRYAMGWYRQAPGKDRELVATITFRDTSTYYADSEKGRFTISRDNAKNTVYLQMNSLKPEDTAVYYCAAVRAVLWDIARYDYWGQGSQVTVSS | low polyreactivity
QVQLVESGGGLVQAGGSLRLSCAASGSIFVPYAMGWYRQAPGKERELVAAISSGGGRTYYADSVKGRFTISRDNAKNTVYLQMNRLKPEDTAVYYCAARYYIGYGHRTYGYDYWGQGTQVTVSS | high polyreactivity
QVQLVESGGGLVQGGGSLRLSCAASGSIFSDYAMGWYRQAPGKEREFVAPITWSGTSTYYADSVKGRFTISRYNAKNTVYLQMNSLKPEDTAGDYSAADLLFWLGLVPGTIYDEFDYWGQGTQVTVAS | low polyreactivity
QVKLVESGGRLVQAGGSLRLSCAASGFTNYAMGWNRQAPGKERELVAAITLSDASTYYADSVKGRFTISRDNAKNTVYLQMNSLKPEDTAVDYCAAKGGRSKSGARALGYWGQGTHVTVSS | low polyreactivity
QVQLVESGGGLVQAGGSLRLSCAASGSIFSTNGMGWYRQAPGKERELVAAISTGGRTYYADSVKGRFTISRDNAKNTVYLQMNSLKPEETAVYYCAKDHWTTTYDEGDYWGQGTEVTVSS | low polyreactivity
QFQLVESGGGLVQAGGSLRLSCAASGGILYRYAMGWYRPAPGKERELVAAIRWSGGSTYYADSVKGRFTISRDNAKNTVYLQMNSLKPEDTAVYYCAADVYYYHVLDFDYWGQGTQVTVSS | low polyreactivity
QVQLVESGGGLVQAGGSLRLSCAASGSTFASNAMGWYRQAPGKERELVAAISKRGGSTYYADSVKGRFTISRDNAKNTVYLQMNSLKPEDTSVYYCNADWTRSQYDYWGQGTQVTVSS | high polyreactivity
QVQLVESGGGLVQAGGSLRLSCAASGRFFKSYAMGWYRQAPGKERELVAAISRSDDTTYYADSVKGRFTISRDNAKNTVYLQMNSLKPEDTAVYYCAADTWRDGDDYWGQGTQVTVSS | low polyreactivity
QVQLVESGGGLVQAGGSLRLSCAASGFTFRYYAMGWYRQAPGKEREFVAAISWDGGITYYADSVKGRFTISRDNAKNTVYLQMNSLKPEDTAVYYCAADVIWESDYWGQGTQVTVSS | high polyreactivity
QVQLVESGGGLVQAGGSLRLSCAASGSTFAKNTMGWYRQAPGKERELVAAISTSGGSTYYADSVKVRFTISRDNAKNTVYLQMNSLKPEDTAVYYCAARAFQYYRAMDYWGQGTQVTVSS | low polyreactivity
QVQLVESGGGLVQAGGSLRLSCAASGSIFPFYAMGWSRQAPGKERELVAAITWISGRTYYADSVKGRFTISRDNAKTTVYLQRNRLKPEDTAVYYCAVDYYSWLRRDDYWGQGTQVTVSS | low polyreactivity
QVQLVESGGGLVQAGGSLRLSCAASGITFRFYALGWYRKAPGKEREFVAAISSRGGRTYYADSVKGRFTISRDHAKNTVYLQMNSLKPEDTAVYYCAADFYYRTVATVTSVARYDYWGQGTQVTVLS | high polyreactivity

Sequence | polyreactivity (PSR sort gate)
QVQLVESGGRLVQAGGSLRLSCAASGSTIYPNAMGWYRPAPGTERELVAGITTIGGSTYYADSVKGRFTISRDNAKNTVYLQMNSLKPEDTAVYYCAARWTFSTWIGFDYWGQGTQVTVSS | low polyreactivity
QVQLVESGGGLVQAGGSLRLSCAASGIIFNKYAMGWYRQAPGKEREFVAAITYRGGSTYYADSVKGRFTISRDNAKNTVYLQMNSLKPEDTAVYYCAARRITTYYYWGQGTQVTVSS | high polyreactivity
QVQLVESGGGLVQAGGSLRLSCAASGRIFYGYTMGWYRQAPGKERELVAAITWSGGSTHYADSVKGRFTISRDNAKNTVYLQMNSLKPEVTAVYYCNARRRSVYRGLYDYWGQGTQVTVSS | high polyreactivity
QVQLVESGGGLVQAGGSLRLSCAAAGSIFSYYAMGWSRPEPGKEREFVATIRRSGASTYYADSVKGRFTISRDNAKNTGYLQMNSLKPEDTAVYYCNAASARRPIYEAARGSKYDYWGQRTQVTVSS | low polyreactivity
QVQLVESGGGLVQAGGSLRLSCAASGRTFSVNAMGWYRQAPGNERELVAARRTGDSTNYADSVKGRFTFSRDNAKYTVYLPMNSLKPEDTSVDYCAADVWGSSAQRGWRKYYYWGQGTQVTVSS | high polyreactivity
PVQLVESGGGLVQAGGSLRLSCAASGTIFFSNAMGWYRQAPGKEREFVATITSSGVGTYYADSVKGRFTISRDNAKNTVYLQMNSLTPEDTAVYYCAADLTISYSQEYYYWGQGTQVTVSS | low polyreactivity
QVQLEESGGGLVQAGGSLRLSCAASGSTLTRNAMGWYRQAPGKERELVAAITSGGRTKYADSVKGRFTISRDNAKNTVYLQMNSLKPEDTAVYYCAKGGPPGQRGYDYWGQGTQVTVSS | high polyreactivity
QVQIVESGGGLVQAGGSLRLSCAASGSIFYYYAMGWYRQAPGKERELVAAITRSGGSTYYADSVKGRFTISRDNEKNTVYLQMNSLKPEDTAVYYCAKDAHAYRDLDYWGQGTQVTVSS | low polyreactivity
QVQLVESGGGLVQAGGSLRLSCADSGSTFPYYTMGWYRQAPGKEREFVAAISRSTGRTSYADSVKGRFTISRDNAKNTVYLQMNSVKPEDSAVYDCAVRWYYYRDDTIYVLGRYDYWGQGTQVSVSS | high polyreactivity
QVQLVESGGGLVQAGGSLRLSCAASGYTFRLYAMGWYRQAPGKERELVAAITSRGGTFYADSVKGRFTLSRDNAKNTVYLQMNSLKPEDTAVYYCAVAPNYPDFRRAIYLYDYWGQGTQLTVSS | low polyreactivity
QVQLVESGGGLVQAGGSLRLSCAASGITLATNAMGLYRQAPGKERELVAAINSGGITKYADSVKGRFTISRDNEKNTVYLQMNSLKPEDTAVYYCAADLEPRTNAPGLPTPDGYYWGQGTQVTVSS | low polyreactivity
QVQLVESGGGLVQAGCSLRLSCAASGLIFGRNVMGWYRQAPGKERELVAAISWSGGRTYYADSVKGRFTISRDNAKNTVYLQMNSLKPEDTAVYYCATDRSTRTYRSPYDYWGQGTQVTVSS | high polyreactivity
QVQLVESGGGLVQAGGSLRLSCAASGGIKRPYAMGWSRQAPRKERELVAAISYSGGSTYYADSVKGRFTISRDTAKISVYLLMNSLKTEDTAVYYCIAYRQCSNVLTTYEYWGKGTQVTVSS | high polyreactivity
QVQLVESGGGLVQAGGILRLSCAASGLTFYYYSMGWYRQAPGKERELVAAINSSGGITFYADSVKGRFTISRDNAKNTVYLQMNSLKPEDTAVYYCAAGGRSKRYGYWGQGTQVTVSS | low polyreactivity
QVQLVDSGGGLVQAGGSLRLSCAASGFIFFQNAMGWYRQSPGKERELVAAISRRGGSTYYADSVKGRFTISRDNAKNTVYLQRNSLTPDDTAGYYCAARSRCDLASRYTGDYWGQGTQLTVSS | low polyreactivity
QVQLVESGGGLVQAGGSLRLSCAASGSTFVGYAMGWYRQAPGKERELVADIDSIGGSTYYADSVNGRFTISRDNAKNTVYLQMNSLKPEDTAVYYCAARRFDTALVLYDYWGQGTQVTVSS | low polyreactivity
QVQLVESGGGLVQAGGSLRLSCAASGLTLYYNAMGWYRQAPGKERELVAAISGSGGNTYYADSVKGRFTISRDNAKNTVYLQMNSLKPEDTAVYYCAKVVRVSHRYYYWGQGTQVTVSS | high polyreactivity
QVQLEESGGGLVQAGGSLRLSCAASGFTIGVYAMGWYRQAPGKERELVAAISARGGSTYYADSVKGRFTISRDNAKKTVYLQMNSLKPEDTAVFYCAVVLKYVSADQMDYWGQGTQVTVSS | high polyreactivity
QVHLVESGGGLVQAGGSLRLTCAASGRTFPGYDMGWYRQAPGKERELVAAISWSGTSTYYADSVKGRFTISRDNSKNTVYLQMNSLIPEDTAVYYCAARVKGQWNTYEYWGQGTQVTVSS | high polyreactivity
QVQLVESGGGLVQAGGSLRLSCAASGIIFSLYAMGAYIQATGKERELVAAITTGGRTYYADSVKGRFTISRDNAKYSVYLQMNSLKPEDTAVYYCAALGPWQGGTTLSTNRGYWGQGTQVTVSS | high polyreactivity
